Experimental data taken from patent US20050032064.

Target: PPAR GAMMA (Mus musculus) (UniProt P37238)
Test: cell_activity
Details: HepG2 per text (Cos per legend); induction vs empty pSG5; amplified by rosiglitazone

(Rev-DR2)x2 SV40 promoter luciferase reporter
activity: 2.5 fold
